Test results: PMC4344312

How the values were obtained:
[1] = total lysate immunoblot, anti-GFP; details: glycan lost; control: SP-VSVG WT
[2] = cell surface ELISA, anti-hGLP-1R, unpermeabilised cells; details: glycan lost; control: SP-VSVG WT, untreated
[3] = confocal immunofluorescence, GFP and surface anti-hGLP-1R; details: glycan lost; control: SP-VSVG WT, untreated

Row | Protein | expression_or_secretion [1] | localisation_or_trafficking, percent_of_wt [2] | localisation_or_trafficking [3]
1 | human glucagon like peptide-1 receptor (hGLP-1R): N63, 82, 115L (protein) parent chain: MAGAPGPLRLALLLLGMVGRAGPRPQGATVSLWETVQKWREYRRQCQRSLTEDPPPATDLFCNRTFDEYACWPDGEPGSFVNVSCPWYLPWASSVPQGHVYRFCTAEGLWLQKDNSSLPWRDLSECEESKRGERSSPEEQLLFLYIIYTVGYALSFSALVIASAILLGFRHLHCTRNYIHLNLFASFILRALSVFIKDAALKWMYSTAAQQHQWDGLLSYQDSLSCRLVFLLMQYCVAANYYWLLVEGVYLYTLLAFSVLSEQWIFRLYVSIGWGVPLLFVVPWGIVKYLYEDEGCWTRNSNMNYWLIIRLPILFAIGVNFLIFVRVICIVVSKLKANLMCKTDIKCRLAKSTLTLIPLLGTHEVIFAFVMDEHARGTLRFIKLFTELSFTSFQGLMVAILYCFVNNEVQLEFRKSWERWRLEHLHIQRDSSMKPLKCPTSSLSSGATAGSSMYTATCQASCS | no change | abolishes | abolishes
2 | human glucagon like peptide-1 receptor (hGLP-1R): tunicamycin (protein) parent chain: MAGAPGPLRLALLLLGMVGRAGPRPQGATVSLWETVQKWREYRRQCQRSLTEDPPPATDLFCNRTFDEYACWPDGEPGSFVNVSCPWYLPWASSVPQGHVYRFCTAEGLWLQKDNSSLPWRDLSECEESKRGERSSPEEQLLFLYIIYTVGYALSFSALVIASAILLGFRHLHCTRNYIHLNLFASFILRALSVFIKDAALKWMYSTAAQQHQWDGLLSYQDSLSCRLVFLLMQYCVAANYYWLLVEGVYLYTLLAFSVLSEQWIFRLYVSIGWGVPLLFVVPWGIVKYLYEDEGCWTRNSNMNYWLIIRLPILFAIGVNFLIFVRVICIVVSKLKANLMCKTDIKCRLAKSTLTLIPLLGTHEVIFAFVMDEHARGTLRFIKLFTELSFTSFQGLMVAILYCFVNNEVQLEFRKSWERWRLEHLHIQRDSSMKPLKCPTSSLSSGATAGSSMYTATCQASCS |  | abolishes | abolishes
